Measured values reported in US20190276531A1.
pEC50, pKd: −log10 of the molar value. Each block holds one substance with its values, some of them ahead of it.

Columns and labels:
[1] = biological target: R-PE-labeled human TIM-3-Fc chimera protein (R&D Systems) (human) (UniProt Q8TDQ0); test: flow cytometry competition: R-PE-labelled TIM-3-Fc pre-mixed with titrated antibody, then binding to phosphatidylserine-positive apoptotic Jurkat cells (MFI); blocked ligand: phosphatidylserine; unit taken from the axis log(Concentration) µg/ml [continued) C]
[2] = biological target: R-PE-labeled human TIM-3-Fc chimera protein (R&D Systems) (human) (UniProt Q8TDQ0); test: flow cytometry competition: R-PE-labelled TIM-3-Fc pre-mixed with titrated antibody, then binding to phosphatidylserine-positive apoptotic Jurkat cells; blocked ligand: phosphatidylserine [continued) C]
[3] = biological target: R-PE-labeled human TIM-3-Fc chimera protein (R&D Systems) (human) (UniProt Q8TDQ0); test: flow cytometry competition; R-PE TIM-3-Fc preincubated with 3.125 µg/ml antibody, then apoptotic Jurkat cells showing phosphatidylserine
[4] = biological target: cynomolgus TIM-3 Fc fusion antigen (Sino Biologicals) (cynomolgus monkey (Macaca fascicularis)); test: ELISA; EC50 on cynomolgus TIM-3 over EC50 on human TIM-3
[5] = biological target: cynomolgus TIM-3 Fc fusion antigen (Sino Biologicals) (cynomolgus monkey (Macaca fascicularis)); test: ELISA; TIM-3 Fc fusion coated at 1 µg/ml, antibody titrated 2-fold from 1000 nM, HRP secondary
[6] = biological target: human TIM-3 Fc fusion antigen (Sino Biologicals) (human) (UniProt Q8TDQ0); test: as above
[7] = biological target: human TIM-3 ECD fused C-terminally to human IgG1 Fc (made in-house, ExpiCHO) (human) (UniProt Q8TDQ0); test: SPR (IBIS MX96); TIM-3 ECD-Fc captured on anti-human IgG Fc sensor, Fab injected 1-100 nM; 1:1 Langmuir fit
[8] = biological target: cynomolgus TIM-3 ECD fused C-terminally to human IgG1 Fc (made in-house, ExpiCHO) (cynomolgus monkey (Macaca fascicularis); human); test: as above
cynomolgus TIM-3 ECD fused C-terminally to human IgG1 Fc (made in-house, ExpiCHO) (cynomolgus monkey (Macaca fascicularis); human), sequence (chain, as listed by the source limits assumed): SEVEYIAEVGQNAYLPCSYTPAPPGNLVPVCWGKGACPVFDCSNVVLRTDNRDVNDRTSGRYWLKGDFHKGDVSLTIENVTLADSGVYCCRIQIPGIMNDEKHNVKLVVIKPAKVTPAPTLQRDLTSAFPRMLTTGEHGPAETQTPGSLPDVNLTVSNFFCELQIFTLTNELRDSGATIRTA

- IC50 [1]: 0.782 µg/mL
- TIM-3 binding (MFI) at 0.003 µg/ml antibody [2]: 8700 MFI
- TIM-3 binding (MFI) at 0.012 µg/ml antibody [2]: 8730 MFI
- TIM-3 binding (MFI) at 0.049 µg/ml antibody [2]: 8890 MFI
- TIM-3 binding (MFI) at 0.195 µg/ml antibody [2]: 8800 MFI
- TIM-3 binding (MFI) at 0.781 µg/ml antibody [2]: 4480 MFI
- TIM-3 binding (MFI) at 3.125 µg/ml antibody [2]: 184 MFI
- TIM-3 binding (MFI) at 12.5 µg/ml antibody [2]: 160 MFI
- TIM-3 binding (MFI) at 50 µg/ml antibody [2]: 157 MFI
- TIM-3-Fc binding to PtdS-positive cells left, % of the binding with non-blocking antibody 15338.15338 [3]: 3.2%
Substance: reference anti-TIM-3 antibody 18571.18571 (humanized ABTIM3 analogue)

- Ratio Cynomolgus/Human EC50 [4]: 1
- pEC50 [5]: 10.15
- pEC50 [6]: 10.15
Substance: reference antibody analogue 18564 ABTIM3

- pKd [7]: 9.11
- pKd [8]: 7.60
Substance: Fab fragment of 18564 ABTIM3 (reference analogue)
